Assay [1] has as its target T1, MT1-160p (MT1-MMP amino acids 160-174) (human).
T1 peptide: REVPYAYIREGHEKQ
Nature of the assay: ELISA.

In assay [2] the target is recombinant human MT1-MMP catalytic domain (human, UniProt P50281 114-287). Nature of the assay: ELISA. On the technique in general: An ELISA detects its analyte on a solid surface through an enzyme-linked reagent.

B1: phage-displayed MT1-AF7p (peptide)
chain: HWKHLHNTKTFL
As to B1, in assay [1], binding was put at a Kd of 0.075 nM.

B2: MT1-AF7p (peptide)
peptide: HWKHLHNTKTFL
Turning to B2, the dissociation constant (Kd) in assay [2] was determined as 47.4 nM.

Usually Kd stands for the concentration at which binding is half-saturated.

These data come from PMC3085951 (Journal of controlled release : official journal of the …, 2011).
